# Results as given in the DeepSol protein solubility set.
# Test: soluble on expression in E. coli; label from the status in PepcDB or PDB records
row,Sequence,soluble on expression in E. coli
1,MGSDKIHHHHHHMANALLQKWVERAERRALFWWQPKNGGVNMGDHLSKVIVSCVLALQDKTLLEKRDLRKKLIATGSVLHFAKDGDTVWGSGINGKIPAERNTFSTLDVRAVRGPKTRAFLLERGIAVPEVYGDPGLLTPMFFPADALGPVTKRPFAIVPHFNEPVEKYSAYAEHLVFPNVKPATFMSALLGAKFVISSSLHGLILAEAYGIPAVYLDWGNGEDRFKYDDYYHGTRRMQWHAGHSVEECMELGGNGSFDLERLQAGLLAAFPYDLW,not soluble
2,MRGSHHHHHHTDPHASSVPLEWPLSSQSGSYELRIEVQPKPHHRAHYETEGSRGAVKAPTGGHPVVQLHGYMENKPLGLQIFIGTADERILKPHAFYQVHRITGKTVTTTSYEKIVGNTKVLEIPLEPKNNMRATIDCAGILKLRNADIELRKGETDIGRKNTRVRLVFRVHIPESSGRIVSLQTASNPIECSQRSAHELPMVERQDTDSCLVYGGQQMILTGQNFTSESKVVFTEKTTDGQQIWEMEATVDKDKSQPNMLFVEIPEYRNKHIRTPVKVNFYVINGKRKRSQPQHFTYHPV,soluble
3,MAKEWGYASHNGPDHWHELFPNAKGENQSPIELHTKDIRHDPSLQPWSVSYDGGSAKTILNNGKTCRVVFDDTYDRSMLRGGPLPGPYRLRQFHLHWGSSDDHGSEHTVDGVKYAAELHLVHWNPKYNTFKEALKQRDGIAVIGIFLKIGHENGEFQIFLDALDKIKTKGKEAPFTKFDPSSLFPASRDYWTYQGSFTTPPCEECIVWLLLKEPMTVSSDQMAKLRSLLSSAENEPPVPLVSNWRPPQPINNRVVRASFKHHHHHH,soluble
4,MSLKAIKNGTILTGTGETIKQGTLLIQDGKVLEVGQRVDTPANAKLIDATGKYVTPGLIDVHTHIGVFSEGLGRTGHDFNETTAAATPYIRAIDGIYPFDQGFEDARQSGVTTVQIMPGSANVIGGEMVTVKTAGTVVDEMIVRAPSGMKAAFGENPKNVHGGKGKLPATRMGVAALFRQQLYQAQDYLKRFEKGELEKRDLGMEQLAKVLRKEIPLRVHAHRADDIATVLRMVDEFDLEATIEHCTEGHLIADHIAKYNVKVSVGPTMTSRTKQELVNKGWHTLIELEKHGIPFSITTDHPVVTINHLVTSAIQAVKAGLSEQSAFQAITLRAAEHIGVEQQVGSLEKGKDGDFVIWSDHPFTATAQVEATYINGKCVTGSHCEGHHHHHH,soluble
5,MGHHHHHHSHMAVWIQAQQLQGEALHQMQALYGQHFPIEVRHYLSQWIESQAWDSVDLDNPQENIKATQLLEGLVQELQKKAEHQVGEDGFLLKIKLGHYATQLQNTYDRCPMELVRCIRHILYNEQRLVREANNGSSP,not soluble
6,MSLTTELGRVLVTGGAGFVGANLVTTLLDRGHWVRSFDRAPSLLPAHPQLEVLQGDITDADVCAAAVDGIDTIFHTAAIIELMGGASVTDEYRQRSFAVNVGGTENLLHAGQRAGVQRFVYTSSNSVVMGGQNIAGGDETLPYTDRFNDLYTETKVVAERFVLAQNGVDGMLTCAIRPSGIWGNGDQTMFRKLFESVLKGHVKVLVGRKSARLDNSYVHNLIHGFILAAAHLVPDGTAPGQAYFINDAEPINMFEFARPVLEACGQRWPKMRISGPAVRWVMTGWQRLHFRFGFPAPLLEPLAVERLYLDNYFSIAKARRDLGYEPLFTTQQALTECLPYYVSLFEQMKNEARAEKTAATVKEGHHHHHH,soluble
7,MQPELTKTPANFPLSPLGAVVILGDIPNPELLAIPLAPTPSTMFGPRGACLVAETGALWVSDTGHHRLLGWRKLPTTDSQPADWVIGQPDFYHEGQNAKGTPGRTTVSVPTGICVCGGGLAIADAWNHRVLIWHKIPEDSNVPADLVLGQRNFSENEPNRGKQSPDANTMHWPYGVAYHQGKLFVADTGNRRLLIWQQLPTENGQPADIVLGQPDMISRNENGGGSPTAGSMRWCHDIAFWDDNLVVTDAGNNRVMIWQGIPTENNAPCAVVLGQKSFDLVEMNQGVYFPSAGSLSMPYGVGATEDWLMVADTANSRLLGWRKRESILLLQGAIADGIIGQNSFQSKSENRHFGLPTRDSLNWCYGVKVCGSTAVISDSGNNRVLLWRFLLEHHHHHH,not soluble
8,VVTRQLGRAPRGVLAIAYRCPNGEPGVVKTAPRLPDGTPFPTLYYLTHPVLTAAASRLETTGLMREMNRRLGQDAELAAAYRRAHESYLSERDALEPLGTTVSAGGMPDRVKCLHVLIAHSLAKGPGLNPFGDEALALLAAEPRTAATLVAGQWR,soluble
9,MGVYPPSEDSFLIIEYASCSGKAIEIGCGTGIVSICFLKRGCDIEAVDISDLAVECAKDNASRNGLTLKVYRSDLFSGVSGTYDTILFNAPYIPVEGEDASWSGGRNLEVVSRFLGQAREHLSASGQIYIVLSDLTDNEGMFRMMGYDYFIIKKISFEFEAIVLYKLTLKALEHHHHHH,not soluble
10,QSNAIWGLDRIDQRNLPLDRNYNANFDGFGVTAYVIDTGVNNNHEEFGGRSVSGYDFVDNDADSSDCNGHGTHVAGTIGGSQYGVAKNVNIVGVRVLSCSGSGTTSGVISGVDWVAQNASGPSVANMSLGGGQSTALDSAVQGAIQSGVSFMLAAGNSNADACNTSPARVPSGVTVGSTTSSDSRSSFSNWGSCVDLFAPGSQIKSAWYDGGYKTISGTSMATPHVAGVAALYLQENNGLTPLQLTGLLNSRASENKVSDTRGTTNKLLYSLADSGCEPDCGGP,soluble
11,MDFPRIIMARNPIYFESIQIGEKIEGLPRTVTETDIWTFAYLTADFFPLHTDVEFAKKTIFGKPIAQGMLVLSIALGMVDQVILSNYDVSSVIAFFGIKDVRFLRPVFIGDTIAASAEVVEKQDFDEKSGVVTYKLEVKNQRGELVLTALYSALIRKTPSK,soluble
12,RSGVLITDKPKKKDKKEEPAALQTTVQSMLISRPRELEAEVVRFQNNREKWIAFVGLKDGRPYEIFTGIADDDEGIMVPKSVTHGKIIKNRDENGERHYDFQFCNKKGFKVTIEGLDSKFNPEYWNYAKLISGVLRYGMPIEQVVHLVQGMSLNDESINTWKNGVERALKRYLPNGTTLSGQVCPSCGQETLVYQEGCLLCTSCGASKCG,not soluble
13,PFRLHATYDESISRMLDVFEKVDRDIPFNGLPWFFDHAETISPKNIERVRALGGGIAIQDRMAFQGEYFVERYGAKAAEMTPPIQRMLAEGIPVGAGTDATRVSSYNPWTSLYWMVSGRTVGGLELYPQGLSRDTALELYTHGSAWFSSEQGKKGQIKVGQLADLVALSADYFSVEEEAIKWIESLLTVVDGKVVHAAGDFDQLAPPSLPVTPDWSPVAKVPGHWKPGAPLQNQVHQCSGPCAVHAHGHQKARMSNVPVSDFQGFWGAFGCSCFA,not soluble
14,MARPNFRYTHYDLKELRAGTTLEISLSSVNNVRLMTGANFQRFTELLDFKYLGGVAKKSPIRIAVPETMHWHLIIDAEGHSGLAESSVKMLPAQPQATLTRKAS,soluble
15,MSLGQDEALEKALDMIRNADRIVIGGGAGLSACGGLNYMSLEVLKKEFPALARRGYHTLWEALWDDRRTKQQKIGMMAAEVLWACYDFPVIRAYQDLLRMVEDKDYFVLTSNIDRQFHKAGFEEERIFEPQCSASDLQCQTPCCRDIWDGESVWRKIAANMDRETYACREEDIPRCDRCHAPAVQNMRGIKSFIPDKVMWNRIEFEQYIKEASDLRTVFLELGAGFNSPGVIRHPFQRLAYRYPKAALIRMNQEFPKVPEKIKDRSVEIAGDIGEALAQMRRLYEREGHHHHHH,soluble
16,MDLPQEIETNMECPVCGSLLYLLTYDTDIPYEGRISIYTYQCKKCMYRKTEVYQEEEKNPVRITLKIESPEDLKTLVYRSRKADIYIPEIEASIDSAEYANGEITTVEGIIYRIGEKLDLLSYDDEEKEAVKEVRKKIDDIINGYFGSFTLIITDESGKSVIESEKAITEKILEHHHHHH,not soluble
17,MGSDKIHHHHHHMQDIDDFLRQHRITEVEAIIPDMAGIARGKIIPRNKFETGESMRLPQAVMVQTVTGDYPEDGTLTGVTDPDMVCVADASTICLIPWAVDPTAQVIHDCVHFDGSPVEISPRYVLRRVLDLYRARGWKPVVAPELEFYLVDMNKDPDLPLRPPVGRTGRAETGRQSYSIEAVNEFDPLFEDIYEYCELQGLDIDTLIHEVGAAQMEINFLHGDALSLADQVFLFKRTVREAALRHNMYATFMAKPMESEPGSAMHIHQSVVDIETGRNLFIGASGDVTPMFRSYLAGLQKYTPALMPIFAPYINSYRRLSRFMAAPINVQWGYDNRTVGFRIPHSAAAARRIENRIPGVDCNPYLAIAGTLAAGYLGVTQGLEPTEPLASDGYSLPYQLPRNLEEGLTLMSACAPLAEMLGEKFVKAYLALKETEYEAFFRVISSWERRHLLLHV,not soluble
18,MFRLEDFNFHNKTVFLRVDLNSPMKDGKIISDARFKAVLPTIRYLIESGAKVVIGTHQGKPYSEDYTTTEEHARVLSELLDQHVEYIEDIFGRYAREKIKELKSGEVAILENLRFSAEEVKNKPIEECEKTFLVKKLSKVIDYVVNDAFATAHRSQPSLVGFARIKPMIMGFLMEKEIEALMRAYYSKDSPKIYVLGGAKVEDSLKVVENVLRRERADLVLTGGLVANVFTLAKGFDLGRKNVEFMKKKGLLDYVKHAEEILDEFYPYIRTPVDFAVDYKGERVEIDLLSENRGLLHQYQIMDIGKRTAEKYREILMKARIIVANGPMGVFEREEFAIGTVEVFKAIADSPAFSVLGGGHSIASIQKYGITGITHISTGGGAMLSFFAGEELPVLRALQISYEKFKEVVK,soluble
19,GNSIASCADEQPHIGNYRLLKTIGKGNFAKVKLARHILTGREVAIKIIDKTQLNPTSLQKLFREVRIMKILNHPNIVKLFEVIETEKTLYLIMEYASGGEVFDYLVAHGRMKEKEARSKFRQIVSAVQYCHQKRIVHRDLKAENLLLDADMNIKIADFGFSNEFTVGGKLDAFCGAPPYAAPELFQGKKYDGPEVDVWSLGVILYTLVSGSLPFDGQNLKELRERVLRGKYRIPFYMSTDCENLLKRFLVLNPIKRGTLEQIMKDRWINAGHEEDELKPFVEPELDISDQKRIDIMVGMGYSQEEIQESLSKMKYDEITATYLLLGRK,soluble
20,NRLKDSKAKSRVVILLTDGSNNMGDITPRMAADIARTFGIRVYTVGVGTRGEAPFPIQTEFGVRIQNVPVDIDEPTLDGIAEVSGGKYFRAVDNETLNEIYKEIDKLEKTRLMTKSFKAYEEK,not soluble
21,MGSDKIHHHHHHMPNHDALAGGKVHLRRGVDLQVSHSPGVYPPLVFIHGGTGNRFNFRMQYEFAQAQGWEVLAYDLGGNGQSSRYSRYSIGRHCRDLARLLVRFGVESPVLCCHSYGVPIGLEFVQHHPVSAIIAIAGGTHDLAPWWEIPLMKFMAGGGRYLLHLPGVQKINKLLSTSYSHSVMERFFVENPPPTDFDAYKGLEIFWDYNFFIRHPLPKNLHIPALVITADKDPTFTANMGDELANHFDDGTHLHFAKGGHLVMAESAELVNEAIANWLIQKLTIN,not soluble
22,MFCLETTFLIDLLRGRDEALKFYAKIRDSKLYTTSISAWELLRGPKLIGKDKEFEVAVELLESLDVLPFSFNSAKIAVEIEKDLREKGMEVNLIDVLIASVAMEHSLKLVTRDEHFSRIKGLEVERYRPE,soluble
23,MSLGSGVAEPEFPVHGDDRAAAFFDLDNTVMQGAAIFHFGRGLYKRKFFETRDLARFAWQQAWFRLAGFEDPEHMQDARDSALSIVKGHRVSELKSIGEEIYDEYMAERIWPGTRALAQAHLDAGQKVWLVTAAPVEIAQVIARRLGLTGALGTVAESIGGVYTGKLVGEPLHGPAKAEAVRALATAEALDLSRCAAYGDSHNDIPMLSLVGHPYAINPDSKLRKHARELEWRLRDYRTGRKAAKEGHHHHHH,soluble
24,MGHHHHHHSHMAPKKAKKRAGGANSNVFSMFEQTQIQEFKEAFTIMDQNRDGFIDKNDLRDTFAALGRVNVKNEEIDEMIKEAPGPINFTVFLTMFGEKLKGADPEETILNAFKVFDPEGKGVLKADYVREMLTTQAERFSKEEVDQMFAAFPPDVTGNLDYKNLVHIITHGEEKD,soluble
